From patent publication US20250213694A1 (SHANGHAI SIMNOVA BIOTECHNOLOGY, published 2025)

B1: GPRC5D-mab06 (antibody, V domains shown)
VH: QVQLKQSGPGLVQPSQSLSITCTVSGFSLTSYGVNWIRQSPGKGLEWLGVIWSGGNTDYNAAFRSRLSISKDNSKSQVFFKMNSLQADDTAIYYCARGQLGRPYWYFDVWGTGTSVTVSS
VL: DIVMTQSHKFMSTSVGDRVSITCKASQDVRTAVAWYQQKPGQSPKLLIYWASTRHTGVPDRFTGSRSGTDYTLTISSVQAEDLALYYCQQHYSTPLTFGAGTKLELK
notes: Murine variable regions; Screened as a chimeric antibody containing the constant region of human IgG1
B2: GPRC5D-mab03 (antibody, V domains shown)
VH: QAYLQQSGAELVRPGASVKMSCKASGYTFTSYNMNWVKQTPRQGLEWIGAIYPGNGDTSYNQKFKGKATLTVDKSSSTAYMQLSSLTSEDSAVYFCARVRLRYAMDYWGQGTSVTVSS
VL: DIVMTQSQKFMSTTVGDRVTITCKASQNVGTAVAWYQQKPGQSPKLLISSASNRYTGVPERFTGSGSGTDFTLTIRNMQSEDLADYFCQQYSSYPWTFGGGTELEIK
notes: as for B1

Target: T1, human GPRC5D on GPRC5D-overexpressing cells (human, UniProt Q9NZD1 1-345)
T1 construct: whole, on cells; also called also tested on NCI-H929 cells
Test: cell-based ELISA and FACS on human GPRC5D-overexpressing cells and NCI-H929 cells; chimeric human IgG1 format

T1 sequence (Q9NZD1 whole entry): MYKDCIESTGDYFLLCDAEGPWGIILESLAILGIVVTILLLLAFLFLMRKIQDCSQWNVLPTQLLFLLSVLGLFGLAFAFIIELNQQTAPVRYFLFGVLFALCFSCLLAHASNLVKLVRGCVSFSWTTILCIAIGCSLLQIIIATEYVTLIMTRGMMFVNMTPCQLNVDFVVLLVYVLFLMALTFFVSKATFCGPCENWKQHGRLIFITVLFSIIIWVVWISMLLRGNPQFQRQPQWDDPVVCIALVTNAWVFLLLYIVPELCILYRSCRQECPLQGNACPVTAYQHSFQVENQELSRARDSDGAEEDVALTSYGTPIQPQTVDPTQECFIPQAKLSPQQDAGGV

| Binder | binding result |
| --- | --- |
| B1 | binds |
| B2 | binds |
